These results are taken from FireProtDB (doi:10.1006/jmbi.1993.1336).

B1: Guanyl-specific ribonuclease T1, P00651 (parent)
chain: MMYSKLLTLTTLLLPTALALPSLVERACDYTCGSNCYSSSDVSTAQAAGYQLHEDGETVGSNSYPHKYNNYEGFDFSVSSPYYEWPILSSGDVYSGGSPGADRVVFNENNQLAGVITHTGASGNNFVECT

In one series the parent is B1. The conditions noted are these: Aspergillus oryzae (strain ATCC 42149 / RIB 40); pH 5; 25 °C; GdnHCl; Fluorescence; Sodium acetate 0.1 M; reversible: yes; structure 1RN1; whole UniProt chain shown.
In the case of MMYSKLLTLTTLLLPTALALPSLVERACDYTCGSNCYSSSDVSTAQAAGYQLHEDGETVGSNSYAHKYNNYEGFDFSVSSPYYEWPILSSGDVYSGGSPGADRVVFNENNQLAGVITHTGASGNNFVECT [P65A], the “ddG of mutation (higher = less stable)” value came to 5.12 kcal/mol, the denaturant m value was found to be 2.63 kcal/mol/M, the “denaturant midpoint (higher = more stable)” value was found to be 1.71 M and the unfolding free energy came out at 4.88 kcal/mol.

The same series, now with this note: Aspergillus oryzae (strain ATCC 42149 / RIB 40); pH 8; 10 °C; GdnHCl; Fluorescence; Tris 0.1 M; reversible: yes; structure 1RN1; whole UniProt chain shown.
Turning to MMYSKLLTLTTLLLPTALALPSLVERACDYTCGSNCYSSSDVSTAQAAGYQLHEDGETVGSNSYAHKYNNYEGFDFSVSSPYYEWPILSSGDVYSGGSPGADRVVFNENNQLAGVITHTGASGNNFVECT [P65A], the “ddG of mutation (higher = less stable)” value was found to be 4.33 kcal/mol, the denaturant m value amounted to 2.87 kcal/mol/M, the “denaturant midpoint (higher = more stable)” value is 1.43 M and the unfolding free energy came out at 4.11 kcal/mol.
